Measured values: patent US20220017618A1 (JIANGSU HENGRUI MEDICINE, published 2022)

What was measured:
[1] = target: T1, TIM-3 extracellular region with Flag and His tags: TIM-3-Flag-His (human); assay: TIM-3 binding ELISA, hybridoma screening (clones positive for protein binding)
T1 construct: The template is UniProt Q8TDQ0 (printed); also called human TIM-3; HAVCR2

[2] = target: T2, Full-length TIM-3 (TIM-3-full length) on TIM-3-overexpressing cells (human, UniProt Q8TDQ0 22-301); assay: binding to TIM-3-overexpressing cells, hybridoma screening (clones positive for cell binding)
T2 construct: It was used to construct the TIM-3-overexpressing cell lines; The template is UniProt Q8TDQ0 (printed); also called human TIM-3; HAVCR2

binding result [1]: binds | binding result [2]: binds
B1: mAb-1799 (antibody, V domains shown)
VH: EVKLVESEGGLVQPGSSMKLSCTASGFTFSDYYMAWVRQVPEKGLEWVANINYDGSSTYYLDSLKSRFIISRDNAKNILYLQMNSLKSDDTATYYCARDVGYYGGNYGFAYWGQGTLVTVSA
VL: DIQMTQSPASLSASVGETVTITCRASDNIYSYLAWYQQKQGKSPQLLVYNAKTLAEGVPSRFSGSGSGTQFSLKINSLQPEDFGSYYCQQHYGSPLTFGAGTKLELK
notes: Murine antibody secreted by a hybridoma
